{
  "source": "paper PMC3314614",
  "about": "“The Tandem CARDs of NOD2: Intramolecular Interactions and Recognition of RIP2” (PLoS ONE, 2012)",
  "key": {"[1]": {"target": "Pop1 PYD (Homo sapiens) (UniProt Q8WXC3)", "sequence (Q8WXC3 whole entry)": "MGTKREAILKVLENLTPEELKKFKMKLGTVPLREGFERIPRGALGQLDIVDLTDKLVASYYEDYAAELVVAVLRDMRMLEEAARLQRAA", "conditions": "cited from earlier work"}, "[2]": {"target": "NOD2-CARDb (isolated) (human) (UniProt Q9HC29)", "assay": "ITC; CARDa in the syringe, CARDb in the cell; 30°C; 50 mM Tris-HCl, 50 mM NaCl, 2 mM DTT, pH 7.5"}, "[3]": {"target": "NOD2-CARDb (isolated) (human) (UniProt Q9HC29)", "assay": "ITC; CARDa in the syringe, CARDb in the cell; 30°C; 50 mM Tris-HCl, 500 mM NaCl, 2 mM DTT, pH 7.5"}, "[4]": {"target": "NOD2-CARDb (isolated) (human) (UniProt Q9HC29)", "assay": "ITC; CARDa in the syringe, CARDb in the cell; 30°C; 50 mM Tris-HCl, 1000 mM NaCl, 2 mM DTT, pH 7.5"}, "[5]": {"target": "NOD2-CARDb (isolated) (human) (UniProt Q9HC29)", "assay": "ITC; CARDa in the syringe, CARDb in the cell; 18°C; 50 mM Tris-HCl, 100 mM NaCl, 2 mM DTT, pH 7.5; one-site model"}, "[6]": {"target": "NOD2-CARDb (isolated) (human) (UniProt Q9HC29)", "assay": "ITC; CARDa in the syringe, CARDb in the cell; 25°C; 50 mM Tris-HCl, 100 mM NaCl, 2 mM DTT, pH 7.5; one-site model"}, "[7]": {"target": "NOD2-CARDb (isolated) (human) (UniProt Q9HC29)", "assay": "ITC; CARDa in the syringe, CARDb in the cell; 25°C; 50 mM Tris-HCl, 100 mM NaCl, 2 mM DTT, pH 7.5; one-site model", "remark": "listed apart in the source"}, "[8]": {"target": "NOD2-CARDb (isolated) (human) (UniProt Q9HC29)", "assay": "ITC; CARDa in the syringe, CARDb in the cell; 30°C; 50 mM Tris-HCl, 250 mM NaCl, 2 mM DTT, pH 7.5"}, "[9]": {"target": "NOD2-CARDb (isolated) (human) (UniProt Q9HC29)", "assay": "ITC; CARDa in the syringe, CARDb in the cell; 30°C; 50 mM Tris-HCl, 100 mM NaCl, 2 mM DTT, pH 7.5; one-site model"}, "[10]": {"target": "NOD2-CARDb (isolated) (human) (UniProt Q9HC29)", "assay": "AUC; sedimentation velocity; individual samples and a 1:1 mixture of CARDa and CARDb; optical density 0.5 at 280 nm; SedFit"}, "[11]": {"target": "Tube DD (Drosophila melanogaster) (UniProt P22812)", "sequence (P22812 27-152)": "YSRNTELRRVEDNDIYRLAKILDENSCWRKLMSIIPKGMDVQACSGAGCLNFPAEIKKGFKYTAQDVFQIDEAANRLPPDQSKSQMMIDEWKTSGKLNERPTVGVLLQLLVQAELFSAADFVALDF", "conditions": "cited from earlier work"}, "[12]": {"target": "caspase-1 CARD (Homo sapiens) (UniProt P29466)", "sequence (P29466 1-94)": "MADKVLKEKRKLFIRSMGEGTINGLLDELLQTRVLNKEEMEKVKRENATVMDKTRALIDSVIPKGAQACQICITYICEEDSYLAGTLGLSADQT", "conditions": "cited from earlier work"}, "[13]": {"target": "T1, procaspase-9 CARD (UniProt P55211 1-92)", "T1 construct": "procaspase-9, CARD", "T1 sequence (looked up)": "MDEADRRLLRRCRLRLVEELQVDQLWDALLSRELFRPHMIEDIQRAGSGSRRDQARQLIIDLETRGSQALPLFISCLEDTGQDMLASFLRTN", "assay": "ITC; data not shown; at different temperatures", "conditions": "both partners purified"}},
  "data": [
    {"molecule": "ASC PYD (from UniProt Q9ULZ3)", "values": [
      {"measurement": "Kd", "setting": "[1]", "value": 4, "unit": "µM"}
    ]},
    {"molecule": "NOD2-CARDa (isolated, wild type) (from UniProt Q9HC29 28-119) (domain or fragment)", "values": [
      {"measurement": "Kd", "setting": "[2]", "value": 1.09, "unit": "µM"},
      {"measurement": "dH", "setting": "[2]", "value": -9, "unit": "kcal/mol"},
      {"measurement": "stoichiometry N", "setting": "[2]", "value": 0.61},
      {"measurement": "Kd", "setting": "[3]", "value": 6.25, "unit": "µM"},
      {"measurement": "dH", "setting": "[3]", "value": -4.8, "unit": "kcal/mol"},
      {"measurement": "stoichiometry N", "setting": "[3]", "value": 0.85},
      {"measurement": "Kd", "setting": "[4]", "value": 7.14, "unit": "µM"},
      {"measurement": "dH", "setting": "[4]", "value": -2.6, "unit": "kcal/mol"},
      {"measurement": "stoichiometry N", "setting": "[4]", "value": 0.78},
      {"measurement": "Kd", "setting": "[5]", "value": 1.08, "unit": "µM"},
      {"measurement": "dH", "setting": "[5]", "value": -2, "unit": "kcal/mol"},
      {"measurement": "stoichiometry N", "setting": "[5]", "value": 0.84},
      {"measurement": "Kd", "setting": "[6]", "value": 1.1, "unit": "µM"},
      {"measurement": "Kd", "setting": "[7]", "value": 0.88, "unit": "µM"},
      {"measurement": "dH", "setting": "[7]", "value": -4.7, "unit": "kcal/mol"},
      {"measurement": "stoichiometry N", "setting": "[7]", "value": 1.03},
      {"measurement": "Kd", "setting": "[8]", "value": 2.99, "unit": "µM"},
      {"measurement": "dH", "setting": "[8]", "value": -5.5, "unit": "kcal/mol"},
      {"measurement": "stoichiometry N", "setting": "[8]", "value": 0.99},
      {"measurement": "Kd", "setting": "[9]", "value": 1.41, "unit": "µM"},
      {"measurement": "dH", "setting": "[9]", "value": -7.4, "unit": "kcal/mol"},
      {"measurement": "stoichiometry N", "setting": "[9]", "value": 0.91},
      {"measurement": "stoichiometry N", "setting": "[10]", "value": 1}
    ]},
    {"molecule": "NOD2-CARDa E69K (isolated) (from UniProt Q9HC29 28-119) (domain or fragment)", "values": [
      {"measurement": "Kd", "setting": "[7]", "value": 0.72, "unit": "µM"},
      {"measurement": "dH", "setting": "[7]", "value": -3.8, "unit": "kcal/mol"},
      {"measurement": "stoichiometry N", "setting": "[7]", "value": 0.94}
    ]},
    {"molecule": "NOD2-CARDa E72K (isolated) (from UniProt Q9HC29 28-119) (domain or fragment)", "values": [
      {"measurement": "Kd", "setting": "[7]", "value": 0.33, "unit": "µM"},
      {"measurement": "dH", "setting": "[7]", "value": -5.2, "unit": "kcal/mol"},
      {"measurement": "stoichiometry N", "setting": "[7]", "value": 0.81}
    ]},
    {"molecule": "NOD2-CARDa R86A (isolated) (from UniProt Q9HC29 28-119) (domain or fragment)", "values": [
      {"measurement": "Kd", "setting": "[7]", "value": 0.81, "unit": "µM"},
      {"measurement": "dH", "setting": "[7]", "value": -4.8, "unit": "kcal/mol"},
      {"measurement": "stoichiometry N", "setting": "[7]", "value": 0.91}
    ]},
    {"molecule": "Pelle DD (from UniProt Q05652)", "values": [
      {"measurement": "Kd", "setting": "[11]", "value": 0.5, "unit": "µM"}
    ]},
    {"molecule": "RIP2 CARD (from UniProt O43353)", "values": [
      {"measurement": "Kd", "setting": "[12]", "value": 1.4, "unit": "µM"}
    ]},
    {"molecule": "Apaf-1 CARD (domain or fragment, UniProt O14727 1-90, looked up, Apaf-1, CARD) MDAKARNCLLQHREALEKDIKTSYIMDHMISDGFLTISEEEKVRNEPTQQQRAAMLIKMILKKDNDSYVSFYNALLHEGYKDLAALLHDG", "values": [
      {"measurement": "Kd", "setting": "[13]", "value": "1 to 4", "unit": "µM"}
    ]}
  ]
}
